Values of other authors in patent US20260201061A1, “COMBINATION FOR TREATMENT AND PREVENTION OF CANCER” (Hummingbird Bioscience Pte. Ltd., priority 2022, published 2026).

target: HER3 (Homo sapiens, UniProt P21860)

Row | Molecule | inhibition of binding of heregulin (HRG)/ligand to HER3
1 | Patritumab: anti-HER3 antibody [reference compound] | inhibit HER3-mediated signaling by blocking binding of heregulin (HRG) to HER3
2 | ISU104: anti-HER3 antibody, mainly binds to domain III of HER3 (antibody, chains of the INN, looked up, V domains shown) VH: EVQLLESGGGLVQPGGSLRLSCAASGFTFSDYDMSWVRQAPGKGLEWVSTIDLDSGSIYYADSVQGRFTISRDNSKNTLYLQMNSLRAEDTAVYYCAKDLHMGPEGPFDYWGQGTLVTVSS VL: QSVLTQPPSASGTPGQRVTISCSGSSSNIGSNSVSWYQQLPGTAPKLLIYSDNHRPSGVPDRFSGSKSGTSASLAISGLRSEDEADYYCQGWDTSLSGHVFGGGTKLTVL | dose-dependent inhibition of binding of HRG to HER3
3 | seribantumab: anti-HER3 antibody (antibody, chains of the INN, looked up) heavy: EVQLLESGGGLVQPGGSLRLSCAASGFTFSHYVMAWVRQAPGKGLEWVSSISSSGGWTLYADSVKGRFTISRDNSKNTLYLQMNSLRAEDTAVYYCTRGLKMATIFDYWGQGTLVTVSSASTKGPSVFPLAPCSRSTSESTAALGCLVKDYFPEPVTVSWNSGALTSGVHTFPAVLQSSGLYSLSSVVTVPSSNFGTQTYTCNVDHKPSNTKVDKTVERKCCVECPPCPAPPVAGPSVFLFPPKPKDTLMISRTPEVTCVVVDVSHEDPEVQFNWYVDGVEVHNAKTKPREEQFNSTFRVVSVLTVVHQDWLNGKEYKCKVSNKGLPAPIEKTISKTKGQPREPQVYTLPPSREEMTKNQVSLTCLVKGFYPSDIAVEWESNGQPENNYKTTPPMLDSDGSFFLYSKLTVDKSRWQQGNVFSCSVMHEALHNHYTQKSLSLSPG light: QSALTQPASVSGSPGQSITISCTGTSSDVGSYNVVSWYQQHPGKAPKLIIYEVSQRPSGVSNRFSGSKSGNTASLTISGLQTEDEADYYCCSYAGSSIFVIFGGGTKVTVLGQPKAAPSVTLFPPSSEELQANKATLVCLVSDFYPGAVTVAWKADGSPVKVGVETTKPSKQSNNKYAASSYLSLTPEQWKSHRSYSCRVTHEGSTVEKTVAPAECS | inhibit HER3-mediated signaling by blocking binding of heregulin (HRG) to HER3
